{
  "source": "paper PMC11893383",
  "about": "(Frontiers in Immunology, 2025)",
  "binders": {"B1": {"name": "AB5-16 (antibody, V domains shown)", "VH": "QALMVQSEAAVKKPGASVKVSCKATGDAFSNHYLHWLRQAPGQGLEWLGIINPGAGSTTYAQKFQGRLTVTTDTSTNTVYMELSSLRSDDTAVYYCARDGAFIPSSYYYGMDVWGQGTTVTVSS", "VL": "EIVLTQSPGTLALSPGERATLSCRASQSVSSSYLAWYQQKPGQAPRLLIYGASSRATGVPDRFSGSGSGTDFTLTVSSLEPEDFAVYYCQQREAFGQGTKVEVK"}, "B2": {"name": "AB5-20 (antibody, V domains shown)", "VH": "QVQLVESGGGVVQPGRSLRLSCTASGFTFRHYGLHWVRQAPGKGLEWVAVILYDGSDEDYRDSVKGRFTISRDNSKNTLYLQMNSLRPEDTAVYYCAKQSGPYCSGGNCYSGHFDYWGQGTPVSVSS", "VL": "DIQMTQSPSSLSASVGDRVTITCQASQDISKSLSWYEQKPGKAPRLLIFEASNLETGVPSRFSGSGSGTSFSFTISSLQPEDFATYYCQQYDNVPLTFGGGTKVERK"}, "B3": {"name": "AB5-21 (antibody, V domains shown)", "VH": "EVQLVESGGGLVQPGGSLRLSCAASGLIVSSNYMHWVRQAPGEGLEWVSVIYSGGSTFYADSVKGRFTISRDNSKNTLYLQMNSLRAEDTAVYYCARGLGDPMDVWGQGTTVTVSS", "VL": "DIQLTQSPSFLSASVGDRVTITCRASQGISSDLAWYQQKPGKAPKLLINAASTLQNGVPSRFSGSGSGTEFTLSISSLQPEDFATYYCQQLNSYPPKLTFGGGTKVEIK"}, "B4": {"name": "AB5-18 (antibody, V domains shown)", "VH": "EVQLVESGGGLVQPGGSLRLSCAASGITVTSNYMTWVRQAPGKGLEWVSLIYAGGSTFYADSVKGRFTVSRDKSKNTLYLQMNSLRGEDTAVYYCARDLQEAGGMDVWGQGTTVTVSS", "VL": "ENVLTQSPGTLSLSPGERATLSCRASQFVSSTFLAWYQQKPGQAPRLLMYGASNRATDIPDRFSGGGSGTDFTLTISRLEPEDFAVYYCQQFGSSPFTFGQGTKLEIK"}, "B5": {"name": "AB6-17 (antibody, V domains shown)", "VH": "QLQLQESGPGLVESSETLSLTCTVSSGSISRSTYYWGWIRQPPGKGMEWIGSISSGGSTYYNPSLNSRVTISIDTSKNQFSLKLRSVTAADTAVYYCARALQWPSPRIDYWAQGTLVTVSS", "VL": "DIQMTQSPSSLSASVGDRVTITCRASQSISSYLNWYQHKPGKAPKLLIYAASSLESGVPSRFTGSGSGTDFTLTIDSLQPEDFATYYCQQSYSTPLFTFGPGTTVDIK"}},
  "key": {"[1]": {"biological_target": "T1, SARS-CoV-2 wild-type (WT) spike trimer (SARS-CoV-2, wild type (Wuhan-Hu-1 …, UniProt P0DTC2))", "T1 construct": "also called spike protein", "assay": "ELISA", "conditions": "both partners purified"}, "[2]": {"biological_target": "T2, SARS-CoV-2 Omicron B.1.1.529 receptor-binding domain (RBD), His-tagged (SARS-CoV-2 Omicron B.1.1.529 (BA.1), strain)", "T2 construct": "also called B.1.1.529 RBD; RBD Omicron B.1.1.529", "assay": "BLI", "conditions": "both partners purified"}},
  "data": [
    {"binder": "B1", "values": [
      {"measurement": "binding result", "setting": "[1]", "value": "binds"}
    ]},
    {"binder": "B2", "values": [
      {"measurement": "binding result", "setting": "[1]", "value": "binds"}
    ]},
    {"binder": "B3", "values": [
      {"measurement": "Kd", "setting": "[2]", "value": 30, "unit": "nM"}
    ]},
    {"binder": "B4", "values": [
      {"measurement": "Kd", "setting": "[2]", "value": 3.4, "unit": "nM"}
    ]},
    {"binder": "B5", "values": [
      {"measurement": "binding result", "setting": "[1]", "value": "binds"}
    ]}
  ]
}
